{
  "source": "patent US20220332804A1",
  "about": "(CSL INNOVATION, published 2022)",
  "binders": {"B1": {"name": "RF16-226 (antibody)", "heavy": "not shown", "light": "SYELTQPPSVSVSPGQTARITCSGDALTSKYVAWYQQKSGLAPLLVIYEDTRRPSGIPAKFSGSSSGSVATLTISGAHGDDEADYYCYSTDASGHQRVFGGGTKLTVLSQPKAAPSVTLFPPSSEELQANKATLVCLISDFYPGAVTVAWKADGSPVKAGVETTKPSKQSNNKYAASSYLSLTPEQWKSHRSYSCQVTHEGSTVEKTVAPTECS"}, "B2": {"name": "RF16-242 (antibody, human IgG4 S228P, lambda, V domains shown)", "VH": "EVQLLQSGAEVKKPGESLKISCKGSGYSFTSYWIGWVRQMPGKGLEWMGIIYPGDSDTRYSPSFQGQVTISADKSISTAYLQWSSLKASDTAMYYCARRGHYGDYFDYWGQGTLVTVSS", "VL": "SYELTQPPSVSVSPGQTARITCSGDALPKKYAYWYHQKSGQAPVLVIYEDRRRPSEIPERFSGSSSGTMATLTITGAQVEDEGVYFCYSRDRAGNQRVFGGGTQLTVLG", "notes": "pH-dependent anti-C2 antibody from a phage display library"}},
  "key": {"[1]": {"biological_target": "T1, Activated human C2 (huC2a) (human, UniProt P06681 244-752)", "T1 construct": "domain: C2a; also called human C2a", "T1 sequence (looked up)": "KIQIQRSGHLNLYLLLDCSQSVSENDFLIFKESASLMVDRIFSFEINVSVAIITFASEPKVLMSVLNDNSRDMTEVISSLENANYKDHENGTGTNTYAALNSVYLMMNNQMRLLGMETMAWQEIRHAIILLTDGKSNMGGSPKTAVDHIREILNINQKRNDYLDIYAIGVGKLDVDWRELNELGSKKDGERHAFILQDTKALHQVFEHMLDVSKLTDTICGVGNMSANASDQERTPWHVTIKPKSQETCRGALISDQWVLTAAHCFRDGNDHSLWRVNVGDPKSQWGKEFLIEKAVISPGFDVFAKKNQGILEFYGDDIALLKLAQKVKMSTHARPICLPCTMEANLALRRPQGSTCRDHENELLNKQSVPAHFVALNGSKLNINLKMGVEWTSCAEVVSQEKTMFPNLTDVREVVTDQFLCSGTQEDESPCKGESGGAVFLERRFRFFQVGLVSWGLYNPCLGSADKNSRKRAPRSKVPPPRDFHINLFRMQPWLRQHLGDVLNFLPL", "test": "SPR, mAb captured, neutral and acidic pH, 0 to 2 mM CaCl2", "procedure": "Surface plasmon resonance (SPR, Biacore) was used for all binding affinity analyses. In brief, goat anti-human IgG was directly immobilised onto the carboxymethyl dextran surface of CM5 sensorchips to approximately 12,000 RU using standard NHS/EDC chemistry at pH 5. The immobilised antibody surface was pre-conditioned with ten injections of polyclonal human IgG (Privigen 60 s) prepared at 1 μg/mL. Ligands (anti-C2 mAbs) were captured at the beginning of each cycle as described below. An adjacent spot or flow cell in which only Polyclonal IgG was capture was used as a reference surface. The goat anti-human IgG Fc antibody surface was regenerate in 100 mM H3PO4, injected for 45 seconds at the end of each cycle. Experiments were performed at 37° C. and the flow rate of each experiment was kept constant at 30 μL/min.\nThe effect of calcium on antibody binding was determined with the addition of calcium chloride to the SPR running buffer. Calcium concentrations ranged from zero (i.e. no added calcium, control) to near physiological levels (0.02, 0.2 and 2 mM CaCl₂.2H₂O, MW 147.02 Da). […]\nPurified human C2 zymogen was tested in physiological conditions (pH 7.3) at concentrations ranging from 1.9 to 500 nM and in acidic conditions (pH 6) at concentrations ranging from 3.9 to 2000 nM. […] Analyte association and dissociation were monitored for 180 and 600 seconds, respectively. […]"}, "human complement C2": {"biological_target": "T2, human complement C2 (human, UniProt P06681 21-752)", "T2 construct": "Recombinant full-length human C2 with C-terminal 8x His tag, purified from Expi293F supernatant; also called human C2; huC2", "T2 sequence": "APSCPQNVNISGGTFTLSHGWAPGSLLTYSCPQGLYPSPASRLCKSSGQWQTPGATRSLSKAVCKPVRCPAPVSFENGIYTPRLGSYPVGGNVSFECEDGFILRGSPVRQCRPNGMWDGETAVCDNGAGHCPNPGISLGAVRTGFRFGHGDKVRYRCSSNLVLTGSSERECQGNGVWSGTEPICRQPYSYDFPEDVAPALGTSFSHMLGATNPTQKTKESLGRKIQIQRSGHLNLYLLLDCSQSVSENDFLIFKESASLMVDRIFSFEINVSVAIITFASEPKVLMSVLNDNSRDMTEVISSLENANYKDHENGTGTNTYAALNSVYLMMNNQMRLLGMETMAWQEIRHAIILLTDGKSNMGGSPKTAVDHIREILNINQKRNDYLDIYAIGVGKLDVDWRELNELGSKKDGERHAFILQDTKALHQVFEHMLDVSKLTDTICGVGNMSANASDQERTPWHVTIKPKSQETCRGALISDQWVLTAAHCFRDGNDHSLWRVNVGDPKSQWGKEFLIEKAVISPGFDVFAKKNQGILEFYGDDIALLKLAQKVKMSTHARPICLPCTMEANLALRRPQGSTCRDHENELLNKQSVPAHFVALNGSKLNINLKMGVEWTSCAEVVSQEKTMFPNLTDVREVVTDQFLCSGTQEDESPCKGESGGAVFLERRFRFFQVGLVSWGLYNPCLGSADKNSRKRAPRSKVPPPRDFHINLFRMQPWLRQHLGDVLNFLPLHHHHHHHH", "test": "SPR, mAb captured, huC2 analyte, pH 6"}, "human C2 A436S": {"biological_target": "T3, human C2 A436S (human, UniProt P06681 21-752)", "T3 sequence": "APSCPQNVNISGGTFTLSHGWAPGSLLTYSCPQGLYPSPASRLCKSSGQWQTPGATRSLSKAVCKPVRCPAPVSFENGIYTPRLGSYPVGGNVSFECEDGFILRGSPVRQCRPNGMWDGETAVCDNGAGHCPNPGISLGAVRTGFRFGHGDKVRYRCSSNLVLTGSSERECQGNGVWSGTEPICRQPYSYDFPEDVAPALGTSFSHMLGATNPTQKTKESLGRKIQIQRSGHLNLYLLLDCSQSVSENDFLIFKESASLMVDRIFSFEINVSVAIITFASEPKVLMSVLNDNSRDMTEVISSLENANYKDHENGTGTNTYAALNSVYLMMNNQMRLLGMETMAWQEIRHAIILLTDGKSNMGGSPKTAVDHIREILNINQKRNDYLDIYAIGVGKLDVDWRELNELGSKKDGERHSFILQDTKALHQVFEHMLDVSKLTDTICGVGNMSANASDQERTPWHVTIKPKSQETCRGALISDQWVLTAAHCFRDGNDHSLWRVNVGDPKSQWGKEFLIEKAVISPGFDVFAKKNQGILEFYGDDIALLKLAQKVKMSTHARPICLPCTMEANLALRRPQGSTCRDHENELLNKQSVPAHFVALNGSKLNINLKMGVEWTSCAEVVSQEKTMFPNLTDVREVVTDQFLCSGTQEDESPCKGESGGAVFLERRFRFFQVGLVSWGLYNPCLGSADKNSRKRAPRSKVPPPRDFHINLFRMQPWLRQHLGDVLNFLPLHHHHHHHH", "test": "SPR, KD relative to WT C2;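 note: biacore SPR at 37 °C, anti-C2 mAbs captured on anti-human IgG chips with alanine or serine point mutants of C2 as analyte, KD from 1:1 fit compared with wild-type C2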"}, "human C2 Q447A": {"biological_target": "T4, human C2 Q447A (human, UniProt P06681 21-752)", "T4 sequence": "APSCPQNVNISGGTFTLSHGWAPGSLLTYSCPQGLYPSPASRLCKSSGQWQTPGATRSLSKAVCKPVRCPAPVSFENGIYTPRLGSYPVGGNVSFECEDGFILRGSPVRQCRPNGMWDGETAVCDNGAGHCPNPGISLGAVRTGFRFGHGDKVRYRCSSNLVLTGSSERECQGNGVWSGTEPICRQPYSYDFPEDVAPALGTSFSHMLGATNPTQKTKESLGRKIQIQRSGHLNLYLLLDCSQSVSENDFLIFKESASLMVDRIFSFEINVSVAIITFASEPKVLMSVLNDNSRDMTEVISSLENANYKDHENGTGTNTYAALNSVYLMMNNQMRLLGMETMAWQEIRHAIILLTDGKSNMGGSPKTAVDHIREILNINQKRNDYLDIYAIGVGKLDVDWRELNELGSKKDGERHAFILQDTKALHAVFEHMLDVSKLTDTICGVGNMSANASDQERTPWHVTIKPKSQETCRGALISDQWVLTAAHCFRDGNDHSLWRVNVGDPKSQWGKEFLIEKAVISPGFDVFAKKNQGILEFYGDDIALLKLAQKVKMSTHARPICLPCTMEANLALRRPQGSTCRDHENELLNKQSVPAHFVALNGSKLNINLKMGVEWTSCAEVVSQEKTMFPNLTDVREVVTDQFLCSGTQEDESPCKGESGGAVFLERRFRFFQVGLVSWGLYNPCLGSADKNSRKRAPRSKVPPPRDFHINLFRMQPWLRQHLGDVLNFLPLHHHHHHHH", "test": "SPR, KD relative to WT C2"}},
  "data": [
    {"binder": "B1", "values": [
      {"measurement": "binding result", "setting": "[1]", "value": "no binding"},
      {"measurement": "Kd", "setting": "human complement C2", "value": "~80", "unit": "nM"}
    ]},
    {"binder": "B2", "values": [
      {"measurement": "Fold diff", "setting": "human C2 A436S", "value": 1, "unit": "fold"},
      {"measurement": "Fold diff", "setting": "human C2 Q447A", "value": 4, "unit": "fold"}
    ]}
  ]
}
